According to patent US6245531:

How the values were obtained:
[1] = biological target: T1, Endogenous ecdysone receptor of Sch-2 cells (EcR) (Drosophila melanogaster) (UniProt P34021); test: cell_activity; settings: 20-OH ecdysone 2e-6 M, beta-galactosidase reporter
T1 sequence: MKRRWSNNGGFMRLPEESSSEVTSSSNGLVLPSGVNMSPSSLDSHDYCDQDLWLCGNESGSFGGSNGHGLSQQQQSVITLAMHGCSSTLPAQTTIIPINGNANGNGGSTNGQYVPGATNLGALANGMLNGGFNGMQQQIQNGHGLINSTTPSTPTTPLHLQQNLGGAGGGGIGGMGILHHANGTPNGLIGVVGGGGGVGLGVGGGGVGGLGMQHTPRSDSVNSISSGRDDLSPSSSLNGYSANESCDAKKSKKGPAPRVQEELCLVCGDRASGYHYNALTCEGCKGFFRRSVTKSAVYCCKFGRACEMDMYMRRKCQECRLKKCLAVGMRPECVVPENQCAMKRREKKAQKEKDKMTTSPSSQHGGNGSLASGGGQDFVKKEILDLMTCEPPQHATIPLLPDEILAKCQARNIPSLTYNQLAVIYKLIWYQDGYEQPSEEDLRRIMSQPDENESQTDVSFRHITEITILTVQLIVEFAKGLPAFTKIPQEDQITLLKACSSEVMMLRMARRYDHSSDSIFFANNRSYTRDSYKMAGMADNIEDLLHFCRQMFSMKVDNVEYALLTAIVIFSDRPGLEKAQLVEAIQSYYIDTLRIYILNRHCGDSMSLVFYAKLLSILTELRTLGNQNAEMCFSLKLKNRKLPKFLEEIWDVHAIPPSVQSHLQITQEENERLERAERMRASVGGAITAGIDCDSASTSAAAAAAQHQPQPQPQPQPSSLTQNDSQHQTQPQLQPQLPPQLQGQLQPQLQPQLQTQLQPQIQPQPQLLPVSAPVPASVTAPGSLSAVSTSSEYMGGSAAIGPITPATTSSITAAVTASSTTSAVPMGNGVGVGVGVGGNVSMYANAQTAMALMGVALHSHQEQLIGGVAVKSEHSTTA

[2] = biological target: T2, Ecdysone receptor EcR (878 aa ORF, Table 2) (Drosophila melanogaster) (UniProt P34021); test: pulldown; settings: anti-EcR immunoprecipitation on magnetic beads; 180 mM KCl EcR buffer pH 7.0, poly dI/dC, 25 C; no hormone stated; antibody dependent; scale: fold preference over average vector sequences
T2 sequence: T1 sequence

| Sequence | activity (fold induction by ecdysone) [1] | binding signal [2] |
| --- | --- | --- |
| TCGAGAGACAAGGGTTCAATGCACTTGTCCAATG / TCGACATTGGACAAGTGCATTGAACCCTTGTCTC [pEcRE/Adh/betagal reporter, 7 x EcRE upstream of Adh -34+53] | 2000 | – |
| TCGAGAGACAAGGGTTCAATGCACTTGTCCAATG / TCGACATTGGACAAGTGCATTGAACCCTTGTCTC | – | 1000 |
